Results reported in US20010052137A1, “Axin domain-like polypeptide inhibitors of glycogen synthase kinase 3 beta activity and activators of wnt signaling” (Trustees of the University of Pennsylvania, priority 2000, published 2001).
Entries after “also recorded” stand apart in the source; their conditions may differ.

B1: GID-2: Myc-tagged fragment, Xaxin amino acid residues 320-429 (protein)
chain: DSEQQSMSSDADTMSLTDSSVDGIPPYRLRKHYRREMQESANANGRGPLPHIPRTYHMPKDIHVDPEKFAAELISRLEGVLRDREAEQKLEERLKRVRAEEEGDDGDVSS
modifications: left off: small tags and cut ends
B2: deltaDIX: Xaxin having amino acid residues 778-842 deleted (protein)
chain: MSVKGKGFPLDLGGSFTEDAPRPPVPGEEGELITTDQRPFSHTYYSLKNDGIKNETSTATPRRPDLDLGYEPEGSASPTPPYLKWAESLHSLLDDQDGIHLFRTFLQQENCADLLDFWFACSGFRKLEPNDSKVEKRLKLAKAIYKKYVLDSNGIVSRQIKPATKSFIKDCVLRQQIDPAMFDQAQMEIQSMMEDNTYPVFLKSDIYLEYTTIGGESPKNYSDQSSGSGTGKGPSGYLPTLNEDEEWRCDQGGEHERERECIPSSLFSQKLALDSSSHCAGSNRRLSDGREFRPGTWREPVNPYYVNTGYAGAPVTSANDSEQQSMSSDADTMSLTDSSVDGIPPYRLRKHYRREMQESANANGRGPLPHIPRTYHMPKDIHVDPEKFAAELISRLEGVLRDREAEQKLEERLKRVRAEEEGDDGDVSSGPSVISHKLPSGPPMHHFNSRYSETGCVGMQIRDAHEENPESILDEHVQRVMKTPGCQSPGTGRHSPKSRSPDGHLSKTLPGSLGTMQTGHGKHSSKSTAKVDSGNLHHHKHVYHHVHHHGGVKPKEQIDGESTQRVQTNFPWNVESHNYATKSRNYAESMGMAPNPMDSLAYSGKVSMLSKRNAKKADLGKSESASHEMPVVPEDSERHQKILQWIMEGEKEIIRHKKSNHSSSSAKKQPPTELARPLSIERPGAVHPWVSAQLRNVVQPSHPFIQDPTMPPNPAPNPLTQLVSKPGARLEEEEKKAAKMPQKQRLKPQKKNVSAPSQPCDNIVVAYYFCGEPIPYRT
modifications: left off: small tags and cut ends
notes: Xaxin having amino acid residues 778-842 deleted
B3: GID-4: Myc-tagged fragment, Xaxin amino acid residues 350-429 (protein)
chain: KHYRREMQESANANGRGPLPHIPRTYHMPKDIHVDPEKFAAELISRLEGVLRDREAEQKLEERLKRVRAEEEGDDGDVSS
modifications: left off: small tags and cut ends
B4: GID-1: Myc-tagged fragment, amino acid residues 277-545 of Xenopus axin (Xaxin) (protein)
chain: SHCAGSNRRLSDGREFRPGTWREPVNPYYVNTGYAGAPVTSANDSEQQSMSSDADTMSLTDSSVDGIPPYRLRKHYRREMQESANANGRGPLPHIPRTYHMPKDIHVDPEKFAAELISRLEGVLRDREAEQKLEERLKRVRAEEEGDDGDVSSGPSVISHKLPSGPPMHHFNSRYSETGCVGMQIRDAHEENPESILDEHVQRVMKTPGCQSPGTGRHSPKSRSPDGHLSKTLPGSLGTMQTGHGKHSSKSTAKVDSGNLHHHKHVYHH
modifications: left off: small tags and cut ends

Assays:
GSK-3 beta [1] = experiment: In ovo tau phosphorylation assay: GSK-3 beta and Xaxin constructs co-expressed in Xenopus oocytes; type: cell-based; conditions: construct co-expressed with GSK-3 beta in Xenopus oocytes; tau microinjected; PHF-1 immunoblot
Description: Stage VI Xenopus oocytes were isolated by collagenase treatment (Smith et al., 1994, Meth. Cell Biol. 36:45-58) and were injected with mRNA prepared by in vitro transcription (mMessage Machine™; Ambion, Austin, Tex.). 10 nanoliters of mRNA (containing 1-2 nanograms per nanoliter) was injected for each construct (unless otherwise specified), and the injected oocytes were incubated for 16 hours at 18° C. To analyze the effects of Xaxin constructs on dorsal-ventral pattern formation, Xenopus embryos were injected with 10 nanoliters of mRNA (0.1-0.2 nanogram per nanoliter) into one dorsal or ventral cell of a 4 cell embryo and dorsal axes were assessed at the tadpole stage. For Xaxin co-immunoprecipitation, fertilized eggs were injected with 10 nanoliters of Xaxin tagged with Myc, with hemagglutinin, or with both Myc and hemagglutinin (1 nanogram per nanoliter) and harvested at the blastula stage (stage 8).
In ovo phosphorylation of tau by GSK-3 beta was performed by microinjection of tau protein into oocytes expressing GSK-3 beta and Xaxin constructs. After 90 minutes, oocytes were homogenized and tau phosphorylation was analyzed in western blots using phospho-specific antibodies as described (Hedgepeth et al., 1997, Develop. Biol. 185:82-91). In vitro assays for GSK-3 beta activity were performed as described (Klein et al., 1996, Proc. Natl. Acad. Sci. USA 93:8455-8459). Recombinant GID-2/his protein (described below) was purified by affinity chromatography and added to in vitro assays at selected concentrations.
In the experiments presented in this example, a tau phosphorylation assay (described in Hedgepeth et al., 1997, Develop. Biol. 185:82-91) was used to examine the activity of GSK-3 beta in Xenopus oocytes in the presence of full length axin and axin deletion mutants. […] Furthermore, GSK-3 beta-dependent tau phosphorylation occurs in oocytes at the same sites (tau serine residues 396 and 404) that are phosphorylated by GSK-3 beta in vitro and occurs with similarly rapid kinetics.
GSK-3 beta was expressed in oocytes together with Myc-tagged full length Xaxin or with the amino-terminal (amino acid residues 63-288), GID-1 (amino acid residues 277-545), or carboxyl-terminal (amino acid residues 429-713) fragments of Xaxin, as depicted in FIG. 1A. Purified tau protein was then microinjected into the oocytes, and phosphorylation of tau was measured by immunoblotting using antibody PHF-1 or with antibodies that detect all (i.e. phosphorylated and non-phosphorylated) forms of tau.
In order to identify the domain of axin necessary for GSK-3 beta binding, multiple Myc-tagged GID deletion constructs (shown diagrammatically in FIG. 3A) were individually expressed in Xenopus oocytes in which GSK-3 beta was also expressed. Tau protein was microinjected into the oocytes, and immunoblotting was performed using phosphorylation-state-specific tau antibodies. A parallel group of oocytes expressing GSK-3 beta and the Myc-tagged GID deletion constructs were lysed, and GID proteins were immunoprecipitated using a Myc-specific antibody. The presence or absence of GSK-3 beta in GID immunoprecipitates was detected using GSK-3 beta-specific antibodies. GID deletion constructs which included amino acid residues 380-404 of Xaxin (i.e. constructs GID-1, GID-2, GID-4, GID-5, and GID-6) bound GSK-3 beta and inhibited GSK-3 beta mediated tau phosphorylation, as indicated in FIG. 3A. […] However, changing leucine residue 392 in FIG. 3B to proline abolishes its activity.

GSK-3 beta [2] = experiment: Co-immunoprecipitation of GSK-3 beta with Myc-tagged Xaxin constructs in Xenopus oocytes; type: binding; conditions: Myc-tagged construct co-expressed with GSK-3 beta in Xenopus oocytes; anti-Myc IP, anti-GSK-3 beta blot
Xenopus embryos = experiment: Dorsal axis duplication / dorsalization in Xenopus embryos after mRNA injection; type: in vivo; conditions: construct expressed in embryos, injection side not stated

| Molecule | GSK-3 beta-mediated tau phosphorylation (GSK-3 beta activity) (GSK-3 beta [1]) | binding with GSK-3 beta (co-immunoprecipitation) (GSK-3 beta [2]) | effect on axial development / axis formation (Xenopus embryos) |
| --- | --- | --- | --- |
| B1 | inhibited | bound |  |
| B2 | partially inhibited | bound |  |
| B3 | inhibited | bound |  |
| B4 | virtually complete inhibition; also recorded: inhibited | bound | complete axis duplication |
